Results on 15 molecules are retold here after patent US20240327502A1 (Merck Sharp & Dohme, published 2024).

Test [1] deals with T1, Processed stabilized hMPV PreF trimer (115BV) (human metapneumovirus, strain B2).
T1 construct: also called Processed hMPV PreF trimer; processed PreF
As to the kind of experiment: BLI, ratio to unprocessed PreF trimer. (BLI is a label-free optical method that tracks binding on a fibre tip over time.)

Test [2] concerns the target T1, Processed stabilized hMPV PreF trimer …. As to the kind of experiment: BLI, mAb on anti-human Fc sensor.
Test [3] has as its target T2, Unprocessed hMPV PreF trimer (human metapneumovirus, strain B2).
T2 construct: also called Unprocessed hMPV WT PreF trimer; unprocessed hMPV PreF trimeric antigen
As to the kind of experiment: BLI, mAb on anti-human Fc sensor.

A further test concerns the target T3, hMPV PostF trimer (human metapneumovirus, strain B2).
T3 construct: also called MPV PostF (dPFv1)
As to the kind of experiment: BLI, mAb on anti-human Fc sensor.

B1: M2A02 (antibody, V domains shown)
VH: QVQLVQSGAEVKRPGSSVKVSCKASGDIFSSHAISWVRQTPGQGLKWMGRIIPLVGIRNYAQDLQGRVTISADKSINTVYMELTNLRFDDTAVYYCARDRTDWSGGLDIWGQGTRVTVSS
VL: EIVLTQSPATLSLSPGERATLSCRASQRIGSYLAWYQQKPGQAPRLLIYDASNRATGIPARFSGSGSGTDFTLTISRLEPEDSAIYYCQQRTDWFTFGGGTKVEIK
notes: IgG
Take B1: the “processed/unprocessed PreF trimer binding ratio” value in test [1] was found to be 0.3. Also, the Octet binding response in test [2] is 0.0795 nm; in test [3], 0.261 nm; in the test with hMPV PostF trimer, -0.0402 nm.

B2: M2B01 (antibody, V domains shown)
VH: QVQLVESGGGVVQPGKSLRLSCAASGFTFSSHAMDWVRQVPGKGLEWVAVISYDGSNRYYADSVKGRFTISRDTSKNTLYLQMNSLRPEDTAVYYCARDFQPSPMVYGVGYFDYWGQGTLVTVSP
VL: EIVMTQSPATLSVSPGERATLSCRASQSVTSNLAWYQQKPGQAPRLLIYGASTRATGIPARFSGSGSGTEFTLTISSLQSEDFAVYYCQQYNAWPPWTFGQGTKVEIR
notes: IgG
For the molecule B2, the “processed/unprocessed PreF trimer binding ratio” value in test [1] turned out to be 0.19. In addition, the Octet binding response in test [2] was 0.0607 nm; in test [3], 0.315 nm; with hMPV PostF trimer it was 0.465 nm.

B3: M1A04 (antibody, V domains shown)
VH: EVQLVESGGGLVRPGGSLRLSCAASGFNVRNYYMSWVRQAPGKGLEWISVIYGGGTTFYAGSVKGRFTISRDDSKSTLFLQMNSLRADDTAVYYCARDPGTVMSTENLQGMDVWGQGTTVTVSS
VL: DIQMTQSPSSLSASVGDRVTITCRASQTIRSYLNWYQQKPGKAPNLLIYAATSLQSGVPSRFSGSGSGTDFTLTISSLQPEDSATYYCQQSFSTLYSFGQGTRLEIK
notes: IgG
For B3, the “processed/unprocessed PreF trimer binding ratio” value in test [1] worked out at 1.23. Also, the results for the Octet binding response (in test [2]; in test [3]; with hMPV PostF trimer) were 0.557 nm, 0.453 nm and 0.618 nm, respectively.

B4: M2D2 (antibody, V domains shown)
VH: QVQLVQSGAEVKKPGASVKVSCKASGYNFDNYYMSWVRQAPGQGLEWLGIIDPSGGRISYAPKFQGRVTLTRDTSTSTVYMELRGLRFEDTALYYCARLEATHEGPWGQGTLVTVSS
VL: QSVLTQPPSASGTPGQRVTISCSGSNSNIGSSTVNWYQQLPGTAPKLLIYSDNHRPSGVPDRFSGSRSGTSASLVISGLHSEDEADYYCGTWDDGLNGPYVFGTGTKVTVL
notes: IgG
B4: the “processed/unprocessed PreF trimer binding ratio” value in test [1] is 0.97. The Octet binding response amounted to 0.351 nm in test [2], 0.362 nm in test [3] and 0.454 nm with hMPV PostF trimer.

B5: M2A06 (antibody, V domains shown)
VH: QVQLVQSGAEVKKPGASVKISCKASGYSFSNYYIQWVRQAPGQGLEWLGIINPSGGSTDYAQKFEGRVSMTRDTSTNTVYMEMSSLRSEDTASYYCVRSLANGSGSPWGQGTLVIVSS
VL: DIQMTQSPSTLSASVGDRVTITCRASQSISSRLAWYQQKPGKAPNLLLYDASRSESGVPSRFSGSGSGTEFTLTISSLQPDDVATYYCQHYSIYSRWTFGQGTKVEIK
notes: IgG
As to B5, the “processed/unprocessed PreF trimer binding ratio” value in test [1] amounted to 0.22. In addition, the Octet binding response in test [2] was 0.052 nm; in test [3], 0.237 nm; with hMPV PostF trimer it was -0.0352 nm.

B6: M4B05 (antibody, V domains shown)
VH: QVQLVQSGPEVRKPGASVIISCKASGYSFISYYIHWVRQAPGQGLEWMGIINPSGGSTEYAQKYQGRLTITRDTSTTTVSMTLSSLRSDDTAVYFCAREQAVGAYDIWGQGTMVTVSS
VL: EIVLTQSPGTLSLSPGERATLSCRAGQLINGNYLAWYQKKPGQAPSLLIYDVSRRAAGVPDRFTGSGSGTDFTLTISRLEPDDFAVYYCQHYGRSPSPTFGGGTKVEIK
notes: IgG
On to B6, for which the “processed/unprocessed PreF trimer binding ratio” value in test [1] turned out to be 0.19. Besides, the Octet binding response in test [2] is 0.0529 nm; in test [3], 0.281 nm; with hMPV PostF trimer it was -0.0395 nm.

B7: M2B12 (antibody, V domains shown)
VH: QVQLVESGGGVVQPGRSLRLSCEASGFTFSSSAMHWVRQAPGKGLEWVAIISYHGTNKDYSDSVRGRFTISRDNSKNTLYLQMNGLRGDDTAVYYCAKEAAVSGNFDSWGQGTMVTVSS
VL: QLVLTQSPSASASLGASVKLTCTLISGPSNYAIAWHRQQPQKGPRYLMKVNSDGSHTKGDGIPDRFSGSSSGTERYLIISNLQSEDEADYYCQTWGSGIYVFGPGTKVTVL
notes: IgG
For B7, in test [1], the “processed/unprocessed PreF trimer binding ratio” value was 1.16. In addition, the Octet binding response was 0.438 nm in test [2], 0.378 nm in test [3] and 0.445 nm with hMPV PostF trimer.

B8: M2A11 (antibody, V domains shown)
VH: QVQLQESGPGLVKPSETLSLTCTVSGGSITSHYWSWVRQPPGKGLEWIAYIYYSGSTDYNPSLKSRVTISLDTSKNQVSLRLNSVTTADTAVYFCARCMPLYHVMHVWGHGTTVTVSS
VL: QSVLTQPPSVSGAPGQRVTISCTGSSSDIGAGSDVHWYQQLPGTAPKLLIYGNTNRPSGVPDRFSGSKSGTSASLAITGLQAEDEADYYCQSYDSGLSGYVFGGGTKLTVL
notes: IgG
Regarding B8, in test [1], the “processed/unprocessed PreF trimer binding ratio” value was determined as 0.23. The figures for the Octet binding response (in test [2]; in test [3]; with hMPV PostF trimer) were 0.0658 nm, 0.285 nm and 0.293 nm, respectively.

B9: M2B10 (antibody, V domains shown)
VH: QVQLVESGGGVVQPGRSLRLSCAASGFTFSNYPMHWVRQAPGKGLAWVALISYDGRTKYYADSVKGRFTISRDNSMNTVYLQMNSLRAEDTAVYYCAREGLEYLNYWGQGTLVTVSS
VL: EIVLTQSPGTLSLSPGERATLSCRASQSISSNSLAWYQQKPGQAPRLLSYGTSNRATGIPDRFSGSGSGTDFTLTISRLEPEDFAVYYCQQYGSSPLTFGPGTKVDIK
notes: IgG
B9: the “processed/unprocessed PreF trimer binding ratio” value in test [1] stood at 0.13. In addition, the figures for the Octet binding response (in test [2]; in test [3]; in the test with hMPV PostF trimer) were 0.0278 nm, 0.209 nm and -0.0646 nm, respectively.

B10: M2A05 (antibody, V domains shown)
VH: QITLKESGPTLVKPTQTLTLTCTVSGFSLSANSVGVAWFRQPPGKAPEWLGVIYWDDDKRFSPSLKTRLSITKDASTSQVVLRLTNVSPLDTATYYCVRKHYDLLQWGQGAPVTVSS
VL: EIVLTQSPGTLSLSPGEGATLSCRASRSVNSDYIAWYQHKPGLAPRLLIYAASTRATDIPDRFRADVSGTDFTLTIDRLEPDDFAVYYCQQYGSAVWTFGQGTRVEVK
notes: IgG
For the molecule B10, the “processed/unprocessed PreF trimer binding ratio” value in test [1] came out at 1.18. For the same molecule, the Octet binding response in test [2] is 0.447 nm; in test [3], 0.378 nm; with hMPV PostF trimer it was 0.449 nm.

B11: M4C04 (antibody, V domains shown)
VH: RVTLRESGPALLKPTQTLTLTCTFSGFSLNTYGMSVNWIRQPPGKALEWLSRIDWDGDKYFNTSLKTRLTISKDTSKNQVVLTMTNMEPVDTATYYCAQSVIVPAQSFVSWFDPWGPGTLVTVSS
VL: EIVMTQSPATLSVSPGERATLSCRASQSVRSNLAWYQQKPGQAPRLLIYGASSRATGIPARFSGSGSGTEFTLTISSLQSEDLAIYYCQQYNNWPPGAFGQGTKVEIK
notes: IgG
In the case of B11, the “processed/unprocessed PreF trimer binding ratio” value in test [1] came out at 0.89. The results for the Octet binding response (in test [2]; in test [3]; in the test with hMPV PostF trimer) were 0.303 nm, 0.342 nm and 0.442 nm, respectively.

B12: M2F01 (antibody, V domains shown)
VH: QVQLVQSGAEVKKPGASVKVSCKASEDTFTNYYMHWVRQAPGQGLEWMGIINPSGGSTDYAQKFQGRVTMTRDTSTSTVYMELSSLRSEDTAMYYCARQGRTAACDYWGQGTLVTVSS
VL: DIQMTQSPSSVSASVGDRVTITCRASQGIRSWLAWYQQKPGKAPKLLIYAASTLQSGVPSRFSGSGSGTDFTLTISSLQPEDFATYYCQQSNSFSLFTFGPGTRVDIK
notes: IgG
Regarding B12, the “processed/unprocessed PreF trimer binding ratio” value in test [1] came out at 0.22. Also, the values for the Octet binding response (in test [2]; in test [3]; with hMPV PostF trimer) were 0.0736 nm, 0.335 nm and -0.0326 nm, respectively.

B13: M2D01 (antibody, V domains shown)
VH: QVQLQESGPGVVKPSETLSLTCTVSRGAITDYHLNWIRQPPGKGLEWIGYISSSGSTNYNPSLKSRVTISQVMSGTQFSLKLTSMSAADTALYYCASSSGRYWGGALDLWGQGTQVIVSS
VL: DIVMTQSPDSLAVPLGERATINCKSSQSLLYTSNNKNSLAWYQQKPGQPPKLLLFWASTREFRVPDRFSGSGSGTDFTLTISSLQAEDVAVYYCQQYYTAPYTFGPGTKLEIK
notes: IgG
With B13, the “processed/unprocessed PreF trimer binding ratio” value in test [1] amounted to 0.19. Further, the Octet binding response in test [2] came out at 0.0622 nm; in test [3], 0.33 nm; with hMPV PostF trimer, 0.493 nm.

B14: M4C03 (antibody, V domains shown)
VH: EVQLVESGGTLVQPGGSLRLSCAASGFRFNAFSMNWVRQAPGKGLEWVSYIDSRSNIIYYADSVKGRFTISRDNAKTSLYLRMSSLRDEDTAVYYCAKALCVVNYDFWSGLLGCAMDVWGQGTTVTVSS
VL: QSVLTQPPSVSGAPGQRVTISCTGTTSNIGAGFDVHWYQQVPGTAPKLLIYANTDRPSGVPDRFSASKSGTSASLAITGLQVEDEAHYYCQTYDTTLSGSTVFGGGTKLTVL
notes: IgG
As for B14, the “processed/unprocessed PreF trimer binding ratio” value in test [1] is 0.12. The Octet binding response in test [2] is 0.0323 nm; in test [3], 0.263 nm; with hMPV PostF trimer, 0.506 nm.

B15: M4C08 (antibody, V domains shown)
VH: EVQLVESGGTLVQPGGSLRLSCAASGFKFNAFSMNWVRQAPGKGLEWVSYIDSRSNIIYYADSVKGRFTISRDNAKNSLYLRMSSLRDEDTAVYYCAKALCVVNYDFWSGLLGCAMDVWGQGTTVTVSS
VL: QSVLTQPPSVSGAPGQRVTISCTGNTSNIGAGFDVHWYQQVPGTAPKLLIYANTDRPSGVPDRFSASKSGTSASLAITGLQAEDEADYYCQTYDRSLSGSTVFGGGTKLTVL
notes: IgG
B15: the “processed/unprocessed PreF trimer binding ratio” value in test [1] is 0.12. Moreover, the Octet binding response came out at 0.0268 nm in test [2], 0.222 nm in test [3] and 0.467 nm with hMPV PostF trimer.
